From US20190271021A1

Target: human TrkB on CHO cells (CHO-K1-hTrkB/pSRE-Luc) (human) (UniProt Q16620)
Test: cell-based or functional assay

Chain of human TrkB on CHO cells (CHO-K1-hTrkB/pSRE-Luc) (human) (Q16620 32-822): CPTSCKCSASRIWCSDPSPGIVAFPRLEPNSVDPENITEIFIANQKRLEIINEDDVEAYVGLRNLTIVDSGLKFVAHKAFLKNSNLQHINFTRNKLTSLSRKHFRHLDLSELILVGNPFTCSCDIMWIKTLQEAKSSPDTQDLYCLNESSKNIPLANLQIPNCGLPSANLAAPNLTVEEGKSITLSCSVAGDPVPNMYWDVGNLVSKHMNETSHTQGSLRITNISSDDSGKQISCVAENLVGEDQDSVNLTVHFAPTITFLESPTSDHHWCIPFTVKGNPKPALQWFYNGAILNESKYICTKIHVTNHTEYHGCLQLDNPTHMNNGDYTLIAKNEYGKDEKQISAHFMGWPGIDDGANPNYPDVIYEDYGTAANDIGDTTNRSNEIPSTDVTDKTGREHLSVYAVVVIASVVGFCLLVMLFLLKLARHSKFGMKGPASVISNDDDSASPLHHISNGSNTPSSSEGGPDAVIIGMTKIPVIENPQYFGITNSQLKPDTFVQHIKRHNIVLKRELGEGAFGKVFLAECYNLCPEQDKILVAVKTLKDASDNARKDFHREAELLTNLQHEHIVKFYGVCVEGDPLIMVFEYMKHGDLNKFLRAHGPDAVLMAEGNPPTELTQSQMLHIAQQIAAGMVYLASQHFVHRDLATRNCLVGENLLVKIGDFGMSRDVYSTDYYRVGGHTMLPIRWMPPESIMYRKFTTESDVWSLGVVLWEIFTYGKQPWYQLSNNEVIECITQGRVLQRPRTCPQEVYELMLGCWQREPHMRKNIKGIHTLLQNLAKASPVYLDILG

Substance | relative BDNF activity in TrkB luciferase assay, EC50 [%] | BDNF activity in TrkBluciferase assay, EC50 [% or nM] [%]
complex of pre-pro(IgA)-BDNF(-RGR)_opsin(L)-(G3D)4-G3S_VH<TfR>8D3-CH1-His6, anti-transferrin receptor antibody light chain and not-fused pre-pro(IgA)-BDNF(-RGR)-opsin(L)-T7-His6 | 60 | 
complex of pre-pro(IgA)-BDNF(-RGR)_opsin(L)-(G3D)4-G3S_VH<TfR>8D3-CH1-His6, anti-transferrin receptor antibody light chain and not-fused pre-pro(IgA)-BDNF(-RGR; R81N)-His6 (from UniProt P23560 1-244) | 80 | 

Second part, the substance after the results:

relative BDNF activity in TrkB luciferase assay, EC50 [%] | BDNF activity in TrkBluciferase assay, EC50 [% or nM] [%] | Substance
200 |  | pre-pro(IgA)-BDNF(-RGR)_opsin(L)-(G3D)4-G3S_VH<TfR>8D3-CH1-His6 with chimeric rat/human anti-transferrin receptor antibody light chain
 | 2830 | pre-pro-BDNF(-RGR; K25N; T35N; Q79T)-T7-His6 (ligand)
110 |  | complex of pre-pro(IgA)-BDNF(-RGR; R81N)_opsin(L)-(G3D)4-G3S_VH<TfR>8D3-CH1-His6, anti-transferrin receptor antibody light chain and not-fused pre-pro(IgA)-BDNF(-RGR; R81N)-His6 (from UniProt P23560 1-244)
